Patent publication US20200121775A1

Biological target: HLA A02:01 class I molecule with β2-microglobulin (human)
Assay: REVEAL MHC class I binding/stabilization assay (ProImmune)

positive control peptide (REVEAL assay)
REVEAL Score: 100 score
